In this assay the target is TrkB receptor (endogenous, at mouse motor nerve terminals) (mouse) (UniProt P15209). The experiment in a line: cell-based or functional assay.
Chain of UniProt P15209 (P15209 32-821): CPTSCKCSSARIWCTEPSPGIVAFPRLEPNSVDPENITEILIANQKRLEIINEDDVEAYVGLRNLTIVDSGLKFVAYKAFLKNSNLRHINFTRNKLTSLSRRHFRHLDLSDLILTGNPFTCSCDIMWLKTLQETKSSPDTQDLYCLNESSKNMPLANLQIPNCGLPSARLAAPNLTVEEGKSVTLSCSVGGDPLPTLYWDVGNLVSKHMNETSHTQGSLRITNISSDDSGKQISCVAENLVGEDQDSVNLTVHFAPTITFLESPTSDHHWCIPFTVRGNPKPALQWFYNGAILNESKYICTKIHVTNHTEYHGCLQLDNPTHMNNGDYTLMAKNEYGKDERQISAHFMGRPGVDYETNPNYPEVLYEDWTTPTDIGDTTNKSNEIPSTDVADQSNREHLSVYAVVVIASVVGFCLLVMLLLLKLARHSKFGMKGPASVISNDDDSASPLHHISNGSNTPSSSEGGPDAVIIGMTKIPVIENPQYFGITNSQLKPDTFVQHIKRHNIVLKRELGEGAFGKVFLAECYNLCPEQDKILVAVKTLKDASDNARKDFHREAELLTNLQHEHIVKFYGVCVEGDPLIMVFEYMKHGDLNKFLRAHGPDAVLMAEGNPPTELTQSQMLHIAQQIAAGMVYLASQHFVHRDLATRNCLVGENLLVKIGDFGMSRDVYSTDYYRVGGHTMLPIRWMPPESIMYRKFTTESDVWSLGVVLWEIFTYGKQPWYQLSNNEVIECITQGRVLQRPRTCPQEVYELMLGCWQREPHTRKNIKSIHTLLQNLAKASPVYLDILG

Substance “recombinant human Brain Derived Neurotrophic Factor (BDNF) (from UniProt P23560 129-247) (ligand)” had an elevation in the level of GFP-TTC concentration at the NMJ (LAL), 100 ng BDNF of 1.72 fold; an elevation in the level of GFP-TTC concentration at the NMJ (LAL), 250 ng BDNF of 1.15 fold; an increase of GFP-TTC signal at the NMJ by BDNF after BoTx/A treatment of 2.05 fold.

“recombinant human Neurotrophin 4 (NT-4) (from UniProt P34130 81-210) (ligand)” had a GFP-TTC localization at the NMJ, fold increase of 1.54 fold.

The record behind these values is US20050060761A1.
